Experimental data reported in the DeepSol protein solubility set.

Test: soluble on expression in E. coli; label from the status in PepcDB or PDB records

Soluble on expression in E. coli, soluble:
MAHHHHHHSLAYGNINQPFSLESLPDELIPENLYQIETDSSRVFQRHQCRRLAHLLLFQLLKIAGKSTALLSQIHRTESGRPYFLDERIDFNISHSGDWVAVILDIRNEEKSAVGIDIEFPKIRNFTALMEHIAPKEEIDWFHHQQDSLNAFYRCWCLREAVLKSQGFGIVKLSNVRHFPEQQKIFSDYCPQGQLWFTDELPIYLAAFVNHQEKLPHFYEWNRESLQIKELEKYVLYEVNEG
DVVSYVSHATQQRLQNLVEKISETAQQKNFSYKDDDRYEQASDVRAQLKFFEQLDQIEKQRKDEQEREILMRAAKSRSRQEDPEQLRLKQKAKEMQQQELAQMRQRDANLTALAAIGPRKKRKVDCPGPGSGAEGSGPGSVVPGSSGVGTPRQFTRQRITRVNLRDLIFCLENERETSHSLLLYKAFLK
MSEQITFATSDFASNPEPRCPCILLLDVSGSMNGRPINELNAGLVTFRDELLADPLALKRVELGIVTFGPVHVEQPFTSAANFFPPILFAQGDTPMGAAITKALDMVEERKREYRANGISYYRPWIFLITDGAPTDEWQAAANKVFRGEEDKRFAFFSIGVQGADMKTLAQISVRQPLPLQGLQFRELFSWLSSSLRSVSRSTPGTEVVLEAPKGWTSV
MSLSAVKIAVILPMTGGISAFGRMVWEGIQIAHEEKPTVLGEEVELVLLDTRSEKTEAANAAARAIDKEKVLAIIGEVASAHSLAIAPIAEENKVPMVTPASTNPLVTQGRKFVSRVCFIDPFQGAAMAVFAYKNLGAKRVVVFTDVEQDYSVGLSNFFINKFTELGGQVKRVFFRSGDQDFSAQLSVAMSFNPDAIYITGYYPEIALISRQARQLGFTGYILAGDGADAPELIEIGGEAVEGLLFTTHYHPKAASNPVAKKFVEVYKEKYGKEPAALNALGYDAYMVLLDAIERAGSFDREKIAEEIRKTRNFNGASGIINIDENGDEGHHHHHH

Soluble on expression in E. coli, not soluble:
MGSDKIHHHHHHGIGVNSSNRLGIDNFEFIRVLGKGSFGKVMLARVKETGDLYAVKVLKKDVILQDDDVECTMTEKRILSLARNHPFLTQLFCCFQTPDRLFFVMEFVNGGDLMFHIQKSRRFDEARARFYAAEIISALMFLHDKGIIYRDLKLDNVLLDHEGHCKLADFGMCKEGICNGVTTATFCGTPDYIAPEILQEMLYGPAVDWWAMGVLLYEMLCGHAPFEAENEDDLFEAILNDEVVYPTWLHEDATGILKSFMTKNPTMRLGSLTQGGEHAILRHPFFKEIDWAQLNHRQIEPPFRPRIKSREDVSNFDPDFIKEEPVLTPIDEGHLPMINQDEFRNFSYVSPELQP
MGSDKIHHHHHHMSYRYNSVVDLIHKQISAGTLKVGDRLPSIRQLSLLTGFSTVTIHHAYELLESHGYCSARPRSGFYLVRTPLQQMGDFPHDGENSIEPISIVDFPHALLLSWQKRTLDAFGAPHPSADLFDCADVDRVMCRLLRRRKAIAANSVGGDPELRLQIAKRAAQRGVVTRPQDIVITGSAIQAFNLCLDALTDPGDVVLVESPSYFPALSSIKRRNLRVIEIYSHPVNGIDPDQLEHLVRNNEIRVAVLMASNHFPTGITYSEDRMKRIVSVAKKNDVTIIANSMLDDITYDSVTDNSLRKFDSGETVLQFSSFECGLSPQYGLGWIVAGKHSQKILAASYLGDYAPNDQRIQQAVAEYLSSRSHDRQLRRIRETLASRMERGLQLLADSLPTGCSVSRPTGGYMCWVRGPQKFTSMTAVLQLHKQNVSILPGSVFSAAARSFENFFALNLSFPWSAENEAKIGSIGDLIAQIVGR
MGSDKIHHHHHHMSTSVLYHAFNLKGITYRATRFTGDVIEYFADVKEEYIRCPKCGQRKFTFKGQKTRSFHLGPMGRKRCFLVLSLHRIKCNTCDTLWWPDLPFMVGKHRFARSFALIVLDLLRFGTIRWVADYLGVGWDMIKEIHKLKLQRLYRNIPLHKVRYIGIDEFSIRKGHEYMTTVMDLSEGRILYATEGKGKEGILPFLKKLARKGKKLRAVAMDMGISFFSAVREALPNIDVVFDRYHIMALMNQGIENLRRNHQKELDDTGKQTLKGNRFLLLRNYDSLKPDHKERLDALMQANQPLFVMHSMKEQLRLFWEIPEYAQAVTFLDTWCKDAMLSGIKELVKVAKTLSGYRTAILNYFKHHITNAALEGTNNKIKTLKRQAYGFRDMEYFKLRLYHLHTQRYSLTG
MGSDKIHHHHHHMSHITDIAYKNWIVELKSKIRSSQVKASLAINAALIEFYWDLGKMIAEKQTAWGTKFIEQVSHDLQVEFPEMKGLSTTNLKYCRSFYLFYQNAIGQQAVAQLPVTPNVQQGVGEISQQSVDQLQHIEKQVNVFGQQFVAQIPWGHNILIFTKSKSYTEAQFYLQQTISNAWGRETLALQIKSQLFERQGKAITNFKQTLPEPLSDLAQQTLKDPYNFDFVNMAGTMKEKDLEKQLITHISKFLLELGKGFAFVGQQYHLEIAENDYYLDLLFYHIKLKCYVVIELKNTKFVPEYTGKMNFYLSAVDTLLKQDDDKPTIGILLCRDKNNIEAEFALRDINKPIGISEFSFTEILPENLKSSLPTVEELENELQHLTNDTDEN
MGSDKIHHHHHHMFIKNAWYVACRPEEIQDKPLGRTICGEKIVFYRGKENQVAAVEDFCPHRGAPLSLGYVEDGNLVCGYHGLVMGCDGKTVSMPAQRVNGFPCNKAYAVVEKFGFIWVWPGEKALADEAKLPTLEWADHPEWSYGGGLFHIQCDYRLMIDNLMDLTHETYVHSSSIGQKEIDEALPVTKVEGDHVITERYMENVIAPPFWQMALRGNHLADDVPVDRWQRCHFFAPSNVHIEVGVAHAGHGGYHAPKDKKVSSIVVDFITPETETSHWYFWGMARNFQPDNAELTDQIREGQGKIFTEDLEMLEQQQQNILNNPHRKLLMLNIDAGGVQSRKVIDRLLAEENKTPPETSTQKFPNIRII
MGSDKIHHHHHHAACSNDEKITESTPKTVALTVKLPEFGGASSRAIDPETTTGNKVTINGPVKIIARVSQGGAITNTISENITAGSMSTITVSGAAQWIEVEANGDNSTETDNVNTRQGSATSSKVRLFGGATINPGSGGNATCTPTISPDMARVEVKGSLGTSWTHLTDLKVKGIYINNIKLTRGVSSLTRIASAAWNTEYAPSGKFEKMFNDNLGGVGAGAGVAQITPGQADGYNFFPQKDNTLPLPTTKEDVMKNSIHIIMEVEFTRADGVPVVGPQWLNVVALKDNTATNYITDFEAGNVYSIDLADIKDIMDVPVPPVTPNPDPETVSVDLTVSIGQWTVVQVKPEV
MGSDKIHHHHHHADTTDNTTTSSSTSANSGSTVQTKALSKAYVVYGAGLASEDKDTVASALGVKSNYTALTATGSDYATYLNAAGTTDASMISSVTLAPADPGTGVKVNIAKYNGSNNITEVTSQQYAMVATMAGVKDVIITVTADKSVSGESALTGVYKALAADGLTLNSQNTQAANGVLDATQPAIDSNSSDKKYPGKLMSAVGSVSSDLAKQRQNGNELATKADIEEMLQKALAKQGIANQTSSTQITNIAIALSQVQKAPVSTSKTYIKNVTNVADSLANSIGDKMASVKDFANSADAKQAENFIVQIWHNVVNFFKGLIGG
MAHHHHHHMLLKALKASFEANKRVYESVLLTFKGVDGYDVYNCSVPFSYKGKTHIYGRVEKRDIWAASHVRLFEETGKDEFTAVPELSWELEDPYIAKINNEMIFGGTRVRKNGNAILSYYGYFYRGTPVELNYFTTGPDYMKDIRVVPLQDGRLGVFSRVRTRAEVYVGFSTVDTIDHLTTEVIATAKAIDFIRPGTWGGVNQAYLLSSGKIGCIGHFAYNDTKPSGEPLMVYINISFVFDAETRQLDTEHVIGTKSCYPACPAKLPVLEDCVFASGIVMRSDGKCDLYSGLGDTHEGRITIDYPFHGYGNIVGQMIF
RNKVKYIELLGKELEILKGGDLNYQITIRGNDELAALAGEMDSMRRAIRSRQEEEELAHLANRGIVTAMSHDLRTPLTALMGYLDILSIEEDPGKKQKYLSVCRDKACQIKSLSDKLFEYFLVYSSDQDELHADEVNGAEFVGQIVEESLFDLENEGIEVARRAGEITCRLLVDVDLMRRVFGNLFSNILKYADRSHAVQAEYGETKDELVIRLRNSVAADASERESSNIGLKTCETILKRHGGTFLYQKDAGMFEAEVRIPCIRE
MPTPTTLSEWQLLAVLSKANLVQYYDVFIAQGGDDINQIMACEEREFLEIMNLVGMLPKPLHVRRMQRALAEYSQDQTAFNLAALQQIGPPPPLNYTPAGTDPMALLLPGIAAATSPKFPSLRFLSQLSSVAEKVSTPSEAADTSSSSPSLNLNTTSSNSVPLAFKFSTPLLESLASDQQSSSTSSVRSVLPSTSSNTSHPELPAGILPATTTNVSAAVPPPSSRATANVFSGNSIGLNFSGAASVTRHLVVPPSSTSIQQPSTSFGRSSSITGQEKEGSSSPFLGVGYSQPYGNDFVSLGDFDPNNPSLTENPTLSTAQISRLAECALAASKNLPPLPPRLVQNKKRVSKEVIELLKCSPATPSMIHAFRKYSAIYGRFDTKRKPHKVLTLHETTVNEAAAQLCLLVPSLLTRRDELFPLARQIVKDAGYNYAKSRKRPCDPADLHSPISSPGNSPPPQESEFDEQPSSSSGAFKEEERPPIPPEAWAAIIEKMKGELPES
MGSDKIHHHHHHMIDGKTANEIFDSIRQHIIAGTLRAEDSLPPVRELASELKVNRNTVAAAYKRLITAGLAQSLGRNGTVIKGSPSPVALEGGDPHTPLHDLSGGNPDPQRLPDLSRYFARLSRTPHLYGDAPVSPELHAWAARWLRDATPVAGEIDITSGAIDAIERLLCAHLLPGDSVAVEDPCFLSSINMLRYAGFSASPVSVDSEGMQPEKLERALNQGARAVILTPRAHNPTGCSLSARRAAALQNMLARYPQVVVIIDDHFALLSSSPWQPVIAQTTQHWAVIRSVSKTLGPDLRLAIVASDSATSAKLRLRLNAGSQWVSHLLQDLVYACLTDPEYQHRLTQTRLFYAARQQKLARALQQYGIAISPGDGVNAWLPLDTHSQATAFTLAKSGWLVREGEAFGVSAPSHGLRITLSTLNDSEINTLAADIHQALNR
MWKLQSPHSCVPMLVWDCSLHPPSQYCSPLFETAVAENINRLSSHCIKKKSIQRGEKMKKILKLLSCIVVLTIAGCLNQPPPSTLALWEKPGADKAMTQQALTKCGWKPVYASPDDMNSYASEFASVYECMKKAGFRYKLQDSKGIYFSPPAKSSSFLSNLMVAGYQQFMENESFGVSNSTKHERELMLRIEKEKKRQKTKKSLQR
MNRVYCTARSFRTSVKSNGWVHKWSRFKRWQEMQAAHVENVQEKQRNKNFIRLPTGLYITPERPDDLNPKKAPADMTRKDTGQLPMELLTWHTQMRYVDHSIDNIKRYRRYKKFQHMQYDQRVIPERLLFLGPDLAAAHFLVHRGAAVKFVGDDNWYKKDKWNRYSLPGRKVDNLFIEAIDASGTQIMFEGLENLENLQKLRLLRLANSEYVDDWCIGRIGGLLPNLEMLDLSGCHRISSKGLMGLKASKNLKFLRLEGLSGIRNLGKSALILEDLLPKLQILGMDYELSFRQIEAENRLLEQERVVLDGRGNAFVEDDNSRLFLVMSTSSDDKAVTDDHDNPIMTSTVRREIPKMDDAEFEEINALSGGKLRHLLVGSPSGYEWTETTERILEHEAELNLTDNVITDPKMLPRGKRPEFELPEHRSRLEDAKAQFLKEFGDFEENSDKEQLKSH
MGSDKIHHHHHHMDINFEYYKIFYYVAKYCNFTKAARALGNSQPNVTRAMNNLEQQINSILFIRNNRGVQLTPEGERLYAHVSAAMSQILAAEEELSDSIGLSHGSVSIGASETALNIYLLDRLKPFHMAYPGIRLKIYNHSTPQAINAVKNGMIDFAVVSTPAEVEAPLKMIKLGSFQEILVGGTTFTALGSQTLSLKELHNYPLIGLGRETMTFQFFNRLFMSHGLEFAPDTETATTDQILPLVKSELGLAFMPKPMAEAAIANREIVEIALEEEIPQRNICMVYDIHQPISAAARELKKVISDSHKV
